The source of these data is patent US20260049138A1 (Chugai, published 2026).

For the assay, the target named is T1, CD3ε homodimer protein (human, UniProt P07766 23-126, limits assumed).
T1 construct: also called CD3 (CD3ε)
Nature of the assay: SPR Biacore T200, CD3ε homodimer on chip.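 Note: Light-chain single-residue variant antibodies injected over amine-coupled CD3ε homodimer on a CM4 chip at 25 °C, bound amount divided by that of the GLS3000-containing antibody.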

T1 sequence (P07766 23-126 limits assumed): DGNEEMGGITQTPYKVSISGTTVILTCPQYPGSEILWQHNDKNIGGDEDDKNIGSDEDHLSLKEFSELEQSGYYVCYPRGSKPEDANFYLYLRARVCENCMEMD

B1: GLS3000 G89T one-arm antibody (antibody, human IgG1, kappa, L234A L235A, N297A, name in Kabat numbering)
heavy: QVQLVESGGGVVQPGRSLRLSCAASGFTFSNAWMHWVRQAPGKGLEWVAQIKAKSNNYATYYAESVKGRFTISRDDSKNSLYLQMNSLKTEDTAVYYCRYVHYGAYYGVDAWGQGTTVTVSSASTKGPSVFPLAPSSKSTSGGTAALGCLVKDYFPEPVTVSWNSGALTSGVHTFPAVLQSSGLYSLSSVVTVPSSSLGTQTYICNVNHKPSNTKVDKKVEPKSCDKTHTCPPCPAPEAAGGPSVFLFPPKPKDTLMISRTPEVTCVVVDVSHEDPEVKFNWYVDGVEVHNAKTKPREEQYASTYRVVSVLTVLHQDWLNGKEYKCKVSNKALPAPIEKTISKAKGQPREPQVYTLPPSRCELTKNQVSLSCAVKGFYPSDIAVEWESNGQPENNYKTTPPVLDSDGSFFLVSKLTVDKSRWQQGNVFSCSVMHEALHNHYTQKSLSLSPDYKDDDDK
chain: EPKSSDKTHTCPPCPAPELLGGPSVFLFPPKPKDTLMISRTPEVTCVVVDVSHEDPEVKFNWYVDGVEVHNAKTKPREEQYNSTYRVVSVLTVLHQDWLNGKEYKCKVSNKALPAPIEKTISKAKGQPREPQVCTLPPSRDELTKNQVSLWCLVKGFYPSDIAVEWESNGQPENNYKTTPPVLDSDGSFFLYSKLTVDKSRWQQGNVFSCSVMHEALHNRYTQKSLSLSP
light: DIVMTQSPLSLPVTPGEPASISCRSSQSLVHSNRNTYLHWYQQKPGQAPRLLIYKVSNRFSGVPDRFSGSGSGTDFTLKISRVEAEDVGVYYCTQGTQVPYTFGQGTKLEIKRTVAAPSVFIFPPSDEQLKSGTASVVCLLNNFYPREAKVQWKVDNALQSGNSQESVTEQDSKDSTYSLSSTLTLSKADYEKHKVYACEVTHQGLSSPVTKSFNRGEC
As to B1, the “ratio of amount bound vs unaltered GLS3000” value (“ratio of amount bound” below) turned out to be 1.03.

B2: GLS3000 G89W one-arm antibody (antibody, human IgG1, kappa, L234A L235A, N297A, name in Kabat numbering)
heavy: QVQLVESGGGVVQPGRSLRLSCAASGFTFSNAWMHWVRQAPGKGLEWVAQIKAKSNNYATYYAESVKGRFTISRDDSKNSLYLQMNSLKTEDTAVYYCRYVHYGAYYGVDAWGQGTTVTVSSASTKGPSVFPLAPSSKSTSGGTAALGCLVKDYFPEPVTVSWNSGALTSGVHTFPAVLQSSGLYSLSSVVTVPSSSLGTQTYICNVNHKPSNTKVDKKVEPKSCDKTHTCPPCPAPEAAGGPSVFLFPPKPKDTLMISRTPEVTCVVVDVSHEDPEVKFNWYVDGVEVHNAKTKPREEQYASTYRVVSVLTVLHQDWLNGKEYKCKVSNKALPAPIEKTISKAKGQPREPQVYTLPPSRCELTKNQVSLSCAVKGFYPSDIAVEWESNGQPENNYKTTPPVLDSDGSFFLVSKLTVDKSRWQQGNVFSCSVMHEALHNHYTQKSLSLSPDYKDDDDK
chain: EPKSSDKTHTCPPCPAPELLGGPSVFLFPPKPKDTLMISRTPEVTCVVVDVSHEDPEVKFNWYVDGVEVHNAKTKPREEQYNSTYRVVSVLTVLHQDWLNGKEYKCKVSNKALPAPIEKTISKAKGQPREPQVCTLPPSRDELTKNQVSLWCLVKGFYPSDIAVEWESNGQPENNYKTTPPVLDSDGSFFLYSKLTVDKSRWQQGNVFSCSVMHEALHNRYTQKSLSLSP
light: DIVMTQSPLSLPVTPGEPASISCRSSQSLVHSNRNTYLHWYQQKPGQAPRLLIYKVSNRFSGVPDRFSGSGSGTDFTLKISRVEAEDVGVYYCWQGTQVPYTFGQGTKLEIKRTVAAPSVFIFPPSDEQLKSGTASVVCLLNNFYPREAKVQWKVDNALQSGNSQESVTEQDSKDSTYSLSSTLTLSKADYEKHKVYACEVTHQGLSSPVTKSFNRGEC
On to B2, for which the “ratio of amount bound” value was 0.5.

B3: GLS3000 G91A one-arm antibody (antibody, human IgG1, kappa, L234A L235A, N297A, name in Kabat numbering)
heavy: QVQLVESGGGVVQPGRSLRLSCAASGFTFSNAWMHWVRQAPGKGLEWVAQIKAKSNNYATYYAESVKGRFTISRDDSKNSLYLQMNSLKTEDTAVYYCRYVHYGAYYGVDAWGQGTTVTVSSASTKGPSVFPLAPSSKSTSGGTAALGCLVKDYFPEPVTVSWNSGALTSGVHTFPAVLQSSGLYSLSSVVTVPSSSLGTQTYICNVNHKPSNTKVDKKVEPKSCDKTHTCPPCPAPEAAGGPSVFLFPPKPKDTLMISRTPEVTCVVVDVSHEDPEVKFNWYVDGVEVHNAKTKPREEQYASTYRVVSVLTVLHQDWLNGKEYKCKVSNKALPAPIEKTISKAKGQPREPQVYTLPPSRCELTKNQVSLSCAVKGFYPSDIAVEWESNGQPENNYKTTPPVLDSDGSFFLVSKLTVDKSRWQQGNVFSCSVMHEALHNHYTQKSLSLSPDYKDDDDK
chain: EPKSSDKTHTCPPCPAPELLGGPSVFLFPPKPKDTLMISRTPEVTCVVVDVSHEDPEVKFNWYVDGVEVHNAKTKPREEQYNSTYRVVSVLTVLHQDWLNGKEYKCKVSNKALPAPIEKTISKAKGQPREPQVCTLPPSRDELTKNQVSLWCLVKGFYPSDIAVEWESNGQPENNYKTTPPVLDSDGSFFLYSKLTVDKSRWQQGNVFSCSVMHEALHNRYTQKSLSLSP
light: DIVMTQSPLSLPVTPGEPASISCRSSQSLVHSNRNTYLHWYQQKPGQAPRLLIYKVSNRFSGVPDRFSGSGSGTDFTLKISRVEAEDVGVYYCGQATQVPYTFGQGTKLEIKRTVAAPSVFIFPPSDEQLKSGTASVVCLLNNFYPREAKVQWKVDNALQSGNSQESVTEQDSKDSTYSLSSTLTLSKADYEKHKVYACEVTHQGLSSPVTKSFNRGEC
As to B3, the “ratio of amount bound” value was found to be 0.27.

B4: GLS3000 G91D one-arm antibody (antibody, human IgG1, kappa, L234A L235A, N297A, name in Kabat numbering)
heavy: QVQLVESGGGVVQPGRSLRLSCAASGFTFSNAWMHWVRQAPGKGLEWVAQIKAKSNNYATYYAESVKGRFTISRDDSKNSLYLQMNSLKTEDTAVYYCRYVHYGAYYGVDAWGQGTTVTVSSASTKGPSVFPLAPSSKSTSGGTAALGCLVKDYFPEPVTVSWNSGALTSGVHTFPAVLQSSGLYSLSSVVTVPSSSLGTQTYICNVNHKPSNTKVDKKVEPKSCDKTHTCPPCPAPEAAGGPSVFLFPPKPKDTLMISRTPEVTCVVVDVSHEDPEVKFNWYVDGVEVHNAKTKPREEQYASTYRVVSVLTVLHQDWLNGKEYKCKVSNKALPAPIEKTISKAKGQPREPQVYTLPPSRCELTKNQVSLSCAVKGFYPSDIAVEWESNGQPENNYKTTPPVLDSDGSFFLVSKLTVDKSRWQQGNVFSCSVMHEALHNHYTQKSLSLSPDYKDDDDK
chain: EPKSSDKTHTCPPCPAPELLGGPSVFLFPPKPKDTLMISRTPEVTCVVVDVSHEDPEVKFNWYVDGVEVHNAKTKPREEQYNSTYRVVSVLTVLHQDWLNGKEYKCKVSNKALPAPIEKTISKAKGQPREPQVCTLPPSRDELTKNQVSLWCLVKGFYPSDIAVEWESNGQPENNYKTTPPVLDSDGSFFLYSKLTVDKSRWQQGNVFSCSVMHEALHNRYTQKSLSLSP
light: DIVMTQSPLSLPVTPGEPASISCRSSQSLVHSNRNTYLHWYQQKPGQAPRLLIYKVSNRFSGVPDRFSGSGSGTDFTLKISRVEAEDVGVYYCGQDTQVPYTFGQGTKLEIKRTVAAPSVFIFPPSDEQLKSGTASVVCLLNNFYPREAKVQWKVDNALQSGNSQESVTEQDSKDSTYSLSSTLTLSKADYEKHKVYACEVTHQGLSSPVTKSFNRGEC
Consider B4, for which the “ratio of amount bound” value came to 0.16.

B5: GLS3000 G89Y one-arm antibody (antibody, human IgG1, kappa, L234A L235A, N297A, name in Kabat numbering)
heavy: QVQLVESGGGVVQPGRSLRLSCAASGFTFSNAWMHWVRQAPGKGLEWVAQIKAKSNNYATYYAESVKGRFTISRDDSKNSLYLQMNSLKTEDTAVYYCRYVHYGAYYGVDAWGQGTTVTVSSASTKGPSVFPLAPSSKSTSGGTAALGCLVKDYFPEPVTVSWNSGALTSGVHTFPAVLQSSGLYSLSSVVTVPSSSLGTQTYICNVNHKPSNTKVDKKVEPKSCDKTHTCPPCPAPEAAGGPSVFLFPPKPKDTLMISRTPEVTCVVVDVSHEDPEVKFNWYVDGVEVHNAKTKPREEQYASTYRVVSVLTVLHQDWLNGKEYKCKVSNKALPAPIEKTISKAKGQPREPQVYTLPPSRCELTKNQVSLSCAVKGFYPSDIAVEWESNGQPENNYKTTPPVLDSDGSFFLVSKLTVDKSRWQQGNVFSCSVMHEALHNHYTQKSLSLSPDYKDDDDK
chain: EPKSSDKTHTCPPCPAPELLGGPSVFLFPPKPKDTLMISRTPEVTCVVVDVSHEDPEVKFNWYVDGVEVHNAKTKPREEQYNSTYRVVSVLTVLHQDWLNGKEYKCKVSNKALPAPIEKTISKAKGQPREPQVCTLPPSRDELTKNQVSLWCLVKGFYPSDIAVEWESNGQPENNYKTTPPVLDSDGSFFLYSKLTVDKSRWQQGNVFSCSVMHEALHNRYTQKSLSLSP
light: DIVMTQSPLSLPVTPGEPASISCRSSQSLVHSNRNTYLHWYQQKPGQAPRLLIYKVSNRFSGVPDRFSGSGSGTDFTLKISRVEAEDVGVYYCYQGTQVPYTFGQGTKLEIKRTVAAPSVFIFPPSDEQLKSGTASVVCLLNNFYPREAKVQWKVDNALQSGNSQESVTEQDSKDSTYSLSSTLTLSKADYEKHKVYACEVTHQGLSSPVTKSFNRGEC
B5: the “ratio of amount bound” value is 1.19.

B6: GLS3000 G89V one-arm antibody (antibody, human IgG1, kappa, L234A L235A, N297A, name in Kabat numbering)
heavy: QVQLVESGGGVVQPGRSLRLSCAASGFTFSNAWMHWVRQAPGKGLEWVAQIKAKSNNYATYYAESVKGRFTISRDDSKNSLYLQMNSLKTEDTAVYYCRYVHYGAYYGVDAWGQGTTVTVSSASTKGPSVFPLAPSSKSTSGGTAALGCLVKDYFPEPVTVSWNSGALTSGVHTFPAVLQSSGLYSLSSVVTVPSSSLGTQTYICNVNHKPSNTKVDKKVEPKSCDKTHTCPPCPAPEAAGGPSVFLFPPKPKDTLMISRTPEVTCVVVDVSHEDPEVKFNWYVDGVEVHNAKTKPREEQYASTYRVVSVLTVLHQDWLNGKEYKCKVSNKALPAPIEKTISKAKGQPREPQVYTLPPSRCELTKNQVSLSCAVKGFYPSDIAVEWESNGQPENNYKTTPPVLDSDGSFFLVSKLTVDKSRWQQGNVFSCSVMHEALHNHYTQKSLSLSPDYKDDDDK
chain: EPKSSDKTHTCPPCPAPELLGGPSVFLFPPKPKDTLMISRTPEVTCVVVDVSHEDPEVKFNWYVDGVEVHNAKTKPREEQYNSTYRVVSVLTVLHQDWLNGKEYKCKVSNKALPAPIEKTISKAKGQPREPQVCTLPPSRDELTKNQVSLWCLVKGFYPSDIAVEWESNGQPENNYKTTPPVLDSDGSFFLYSKLTVDKSRWQQGNVFSCSVMHEALHNRYTQKSLSLSP
light: DIVMTQSPLSLPVTPGEPASISCRSSQSLVHSNRNTYLHWYQQKPGQAPRLLIYKVSNRFSGVPDRFSGSGSGTDFTLKISRVEAEDVGVYYCVQGTQVPYTFGQGTKLEIKRTVAAPSVFIFPPSDEQLKSGTASVVCLLNNFYPREAKVQWKVDNALQSGNSQESVTEQDSKDSTYSLSSTLTLSKADYEKHKVYACEVTHQGLSSPVTKSFNRGEC
For B6, the “ratio of amount bound” value came out at 1.63.
